According to patent publication US20040018580A1, “Synthetic substrates for prostasin” (priority 2002, published 2004):

What was measured:
[1] = molecular target: T1, prostasin-mPBP complex (Homo sapiens, UniProt Q16651); experiment: Inhibition of complex formation between prostasin and mPBP (western blot); format: binding
T1 construct: made in house; mPBP: purified from mouse seminal vesicle fluid
Description: (§1) The procedures were performed according to Chen et al. Briefly, purified recombinant prostasin was incubated with samples from each purification step or the final purified mPBP at 37 degrees C. for 1 hour or for various times as indicated. The binding reaction was stopped by the addition of SDS sample buffer (1×SDS sample buffer=62.5 mM Tris-Hcl at Ph 6.8, 2% (v/v) glycerol, 2% SDS (w/v) and 2% Beta-mercaptoethanol). The reaction mixtures were then boiled for 5 min, and resolved in 10% SDS-polyacrylamide gels. The resolved proteins were then transferred to nitrocellulose membranes, and analyzed with either a prostasin antibody or the mPBP antibody. Signals were detected using an ECL detection procedure with the WestPico reagents (Pierce, Rockford, Ill.) following the manufacturer's protocol. The membrane was then exposed to X-ray film (Midwest Scientific, St. Louis, Mo.) The prostasin antibody was used at 1:2,000 dilution, the mPBP antibody was used at 1:10,000 dilution, and the secondary antibody (goat anti-rabbit IgG, Sigma-Aldrich) was used at 1:10,000 dilution. All antibodies were diluted in 5% non-fat milk in TBS-T (TBS-T=20 mM Tris-Hcl at pH 7.6, 0.14M NaCl and 0.1% Tween-20).
(§2) The purified mPBP was tested for its biochemical activities using the prostasin binding assay. Complex formation between mPBP and purified prostasin was analyzed by western blotting using the mPBP antibody and a prostasin antibody. […] The complex was detected after 30 seconds of incubation and progressed during the incubation time course (60 minutes). […] The complex formation of prostasin and mPBP was used as a control (FIG. 4C, lane 2).
(§3) It has been known that PN-1 can form complexes with various serine proteases, including thrombin. […] We also tested if the complex is pH dependent because prostasins's optimum pH is 9.0. […] We further tested if heparin may have a different effect on the complex formation between prostasin-mPBP versus on that between thrombin-mPBP.

[2] = molecular target: T2, prostasin (Homo sapiens, UniProt Q16651); experiment: Complex formation of recombinant GST-PN-1 with recombinant prostasin (immunoblot); format: binding; design: made in house; details: for complex formation of GST-PN-1 fusion protein with prostasin: 0.5 micrograms recombinant prostasin, 37 degrees C., 60 minutes
Description: To establish if mPBP is indeed protease nexin-1, mouse and human protease nexin-1 (PN-1) cDNA were cloned into the pGEX-6P-1 expression vector. The recombinant protein products have the schistosomal glutathione-S-transferase (GST) fused to t he N-terminus of the PN-1. The GST fusion proteins were affinity-purified using glutathione-conjugated agarose-beads. For each type of recombinant protein, cleared supernatant of cell lysate from one liter of culture was incubated with 1 ml of […] glutathione-beads. The beads were eluted with 1 ml of fresh 10 mM glutathione in 50 mM Tris-Hcl, pH 8.0. Twenty microliters of the eluent were incubated with 0.5 micrograms of recombinant prostasin at 37 degrees C. for 60 minutes in the absence or presence of aprotinin. Both the GST-mPN-1 (FIG. 8, lane 1 alone at 64 kDa) and the GST-hPN-1 (FIG. 8, lanes 2 and 5). […] An immunoreactive band at 30 kDa and two other minor immunoreactive bands at 42 kDa and 60 kDa were likely the products of non-specific degradation of the recombinant PN-1, since no protease inhibitors were added in the cell lysate during purification.

[3] = molecular target: T3, thrombin-mPBP complex (Homo sapiens, UniProt P00734); experiment: Effect of heparin on complex formation between thrombin and mPBP; format: binding; details: heparin at 0.25 unit/reaction, FIG. 6B
T3 construct: mPBP: purified from mouse seminal vesicle fluid
Description: as §3

[4] = molecular target: T2, prostasin; experiment: Enzymatic assay with QAR-AMC substrate (residual activity of prostasin); format: biochemical; design: made in house
Description: Recombinant human prostasin was purified as described in Chen et al. A synthetic substrate, N-t-Boc-Gln-Ala-Arg-7-amido-4-methyl coumarin (QAR-AMC) was purchased from Sigma-Aldrich. The purified mPBP (concentration range 0-0.4 micromolar) was incubated with prostasin (0.8 micromolar) for 30 mins at 37 degrees C. The binding reaction mixture (20 microliters) was then added to 80 microliters of […] Tris-HCL) pH 8.0/0.1% bovine serum albumin containing the QAR-AMC substrate (final concentration: 100 micromolar) in 96-well microtiter plates (Costar 3903, Cambridge, Mass.). The velocity of substrate hydrolysis was measured using a Wallac 1420 Victor mulitlabel counter at wavelength 355 nm and wavelength 460 nm. The residual activity of prostasin (velocity of the inhibited enzyme reaction/velocity of the uninhibited enzyme reaction) as plotted versus the mPBP concentration.
QAR-AMC was used as a substrate for prostasin to test the inhibitory activity of the purified mPBP. Pprostasin (0.8 micromolar) was incubated with 0, 0.05, 0.1, 0.2 or 0.4 micromolar mPBP at 37 degress C. for 30 mins. The reaction mixture was then to the assay buffer containing a final concentration of 100 micromolar QAR-AMC substrate.

[5] = molecular target: T4, thrombin (Homo sapiens, UniProt P00734); experiment: Complex formation between thrombin and mPBP; format: binding
Description: as §3

[6] = molecular target: T2, prostasin; experiment: Membrane-overlay zymography of prostasin activity; format: biochemical
[7] = molecular target: T5, purified recombinant prostasin (Homo sapiens, UniProt Q16651); experiment: Prostasin-binding assay (complex formation, western blot)
T5 construct: made in house
Description: as §1, §2

[8] = molecular target: T4, thrombin; details: cited from earlier work
[9] = test system: factor Xa; details: cited from earlier work
[10] = binding conditions of increasing pH

T5 sequence (Q16651 33-343): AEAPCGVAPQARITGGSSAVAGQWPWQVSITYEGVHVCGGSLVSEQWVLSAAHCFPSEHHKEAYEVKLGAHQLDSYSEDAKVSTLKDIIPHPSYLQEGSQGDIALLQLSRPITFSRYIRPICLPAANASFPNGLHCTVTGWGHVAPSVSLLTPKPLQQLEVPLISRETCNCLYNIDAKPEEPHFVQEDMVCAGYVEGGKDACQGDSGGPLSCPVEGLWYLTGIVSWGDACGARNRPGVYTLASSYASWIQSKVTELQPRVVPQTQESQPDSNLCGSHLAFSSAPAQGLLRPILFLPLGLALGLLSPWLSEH
T2 sequence (Q16651 33-343): as above

O=S(=O)(F)Cc1ccccc1 [PMSF]
effect on prostasin-mPBP complex formation ([1]; FIG. 4C): inhibited

aprotinin [reference compound]
effect on GST-PN-1/prostasin complex formation ([2]; in the presence of aprotinin, FIG. 8 lanes 3 and 6): inhibited | effect on prostasin-mPBP complex formation ([1]; FIG. 4C): inhibited

heparin
effect on thrombin-mPBP complex formation [3]: not between thrombin-PMP | effect on prostasin-mPBP complex formation ([1]; FIG. 4C): inhibited | effect on prostasin-mPBP complex formation ([1]; heparin at 0.25 unit/reaction, FIG. 6B): completely abolished | effect on prostasin inhibition by mPBP ([4]; pre-incubation of mPBP and heparin, QAR-AMC substrate): able to prevent prostasin inhibition by mPBP

B1: GST-mPN-1: recombinant mouse PN-1 with glutathione-S-transferase fused to the N-terminus (protein)
chain: SQFNSLSLEELGSNTGIQVFNQIIKSRPHENVVVSPHGIASILGMLQLGADGKTKKQLSTVMRYNVNGVGKVLKKINKAIVSKKNKDIVTVANAVFLRNGFKMEVPFAVRNKDVFQCEVQNVNFQDPASASESINFWVKNETRGMIDNLLSPNLIDGALTRLVLVNAVYFKGLWKSRFQPESTKKRTFVAGDGKSYQVPMLAQLSVFRSGSTRTPNGLWYNFIELPYHGESISMLIALPTESSTPLSAIIPHITTKTIDSWMNTMVPKRMQLVLPKFTAVAQTDLKEPLKALGITEMFEPSKANFTKITRSESLHVSHILQKAKIEVSEDGTKASAATTAILIARSSPPWFIVDRPFLFSIRHNPTGAILFLGQVNKP
modifications: left off: a dimerising Fc or GST
notes: recombinant mouse PN-1 with glutathione-S-transferase fused to the N-terminus
complex formation of GST-PN-1 fusion protein with prostasin [2]: form a 100 kDa complex

B2: mPBP: mouse prostasin-binding protein purified from mouse seminal vesicle fluid, 45 kDa; identified as the serpin protease nexin-1 (protein)
chain: B1 chain
pH dependence of complex formation of mPBP and thrombin [5, 10]: somewhat decreased with increasing pH | complex formation with thrombin ([5]; purified mPBP): formed a complex with prostasin as well as thrombin | inhibition of prostasin's activity by membrane-overlay zymography [6]: inhibits prostasin's activity | pH dependence of complex formation of mPBP and prostasin [7, 10]: increased with higher pH | complex formation with prostasin ([7]; purified mPBP, western blot): formed a complex with prostasin | incubation time after which the prostasin-mPBP complex was detected ([7]; time course up to 60 minutes, 37 degrees C.): 30 s | inhibition of prostasin's activity ([4]; prostasin 0.8 micromolar with 0-0.4 micromolar mPBP, 37 degrees C., 30 mins, 100 micromolar QAR-AMC): inhibited in a dose dependent manner

B3: PN-1: protease nexin-1, a serine protease inhibitor (serpin) (protein)
chain: B1 chain
inhibitory activity of PN-1 to thrombin in the presence of heparin [8]: enhanced | inhibitory activity of PN-1 to factor Xa in the presence of heparin [9]: enhanced

B4: GST-hPN-1: recombinant human PN-1 with glutathione-S-transferase fused to the N-terminus (protein)
chain: SHFNPLSLEELGSNTGIQVFNQIVKSRPHDNIVISPHGIASVLGMLQLGADGRTKKQLAMVMRYGVNGVGKILKKINKAIVSKKNKDIVTVANAVFVKNASEIEVPFVTRNKDVFQCEVRNVNFEDPASACDSINAWVKNETRDMIDNLLSPDLIDGVLTRLVLVNAVYFKGLWKSRFQPENTKKRTFVAADGKSYQVPMLAQLSVFRCGSTSAPNDLWYNFIELPYHGESISMLIALPTESSTPLSAIIPHISTKTIDSWMSIMVPKRVQVILPKFTAVAQTDLKEPLKVLGITDMFDSSKANFAKITTGSENLHVSHILQKAKIEVSEDGTKASAATTAILIARSSPPWFIVDRPFLFFIRHNPTGAVLFMGQINKP
modifications: left off: a dimerising Fc or GST
notes: recombinant human PN-1 with glutathione-S-transferase fused to the N-terminus
complex formation of GST-PN-1 fusion protein with prostasin [2]: form a 100 kDa complex
